Experimental data as given in publication PMC12796321, “The genetic and biochemical basis of human leading strand synthesis”.

Experiments:
[1] = target: T1, POLE1 (Pol epsilon catalytic subunit);POLE2;POLE3;POLE4 DNA binding mutant (DB/DBM) (human;human;human;human, UniProt Q07864;P56282;Q9NRF9;Q9NR33 1-2286;1-527;1-147;1-117, |||A44L;R45D;K47E;K51E); experiment: EMSA; binding abolished; EMSA: 30 nM DNA, 30-120 nM protein; protein dilution buffer 25 mM Hepes pH 7.5, 100 mM NaCl, 10% glycerol, 0.5 mM EDTA, 1 mM DTT, 0.01% NP-40; 5x reaction buffer 175 mM Hepes pH 7.4, 100 mM NaCl, 10 mM DTT, 500 ug/ml BSA; on ice 20 min (legends: 15 min); native TBE gel at 4 C; conditions: protein: recombinant;recombinant;recombinant;recombinant; tags: N-terminal streptavidin tag;;;; copies: 1;1;1;1; label: 5' 6FAM on strand 1; blunt
[2] = target: POLE1 ISC mutant;POLE2;POLE3;POLE4 (human;human;human;human, UniProt Q07864;P56282;Q9NRF9;Q9NR33 1-2286;1-527;1-147;1-117, C651S;C654S|||); experiment: EMSA; EMSA: 30 nM DNA, 30-120 nM protein; protein dilution buffer 25 mM Hepes pH 7.5, 100 mM NaCl, 10% glycerol, 0.5 mM EDTA, 1 mM DTT, 0.01% NP-40; 5x reaction buffer 175 mM Hepes pH 7.4, 100 mM NaCl, 10 mM DTT, 500 ug/ml BSA; on ice 20 min (legends: 15 min); native TBE gel at 4 C; conditions: protein: recombinant;recombinant;recombinant;recombinant, tags: N-terminal streptavidin tag;;;, copies: 1;1;1;1
[3] = target: POLE1 (Pol epsilon catalytic subunit);POLE2 (human;human, UniProt Q07864;P56282 1-2286;1-527, |); experiment: EMSA; without POLE3-POLE4; EMSA: 30 nM DNA, 30-120 nM protein; protein dilution buffer 25 mM Hepes pH 7.5, 100 mM NaCl, 10% glycerol, 0.5 mM EDTA, 1 mM DTT, 0.01% NP-40; 5x reaction buffer 175 mM Hepes pH 7.4, 100 mM NaCl, 10 mM DTT, 500 ug/ml BSA; on ice 20 min (legends: 15 min); native TBE gel at 4 C; conditions: protein: recombinant;recombinant; tags: N-terminal streptavidin tag;; copies: 1;1; label: 5' 6FAM
[4] = target: T1, POLE1 (Pol epsilon catalytic …); experiment: EMSA; EMSA: 30 nM DNA, 30-120 nM protein; protein dilution buffer 25 mM Hepes pH 7.5, 100 mM NaCl, 10% glycerol, 0.5 mM EDTA, 1 mM DTT, 0.01% NP-40; 5x reaction buffer 175 mM Hepes pH 7.4, 100 mM NaCl, 10 mM DTT, 500 ug/ml BSA; on ice 20 min (legends: 15 min); native TBE gel at 4 C; conditions: protein: recombinant;recombinant;recombinant;recombinant; tags: N-terminal streptavidin tag;;;; copies: 1;1;1;1; label: 5' 6FAM

Chain of POLE1 ISC mutant;POLE2;POLE3;POLE4 (Q07864 whole entry C651S/C654S, chain 1 of 4): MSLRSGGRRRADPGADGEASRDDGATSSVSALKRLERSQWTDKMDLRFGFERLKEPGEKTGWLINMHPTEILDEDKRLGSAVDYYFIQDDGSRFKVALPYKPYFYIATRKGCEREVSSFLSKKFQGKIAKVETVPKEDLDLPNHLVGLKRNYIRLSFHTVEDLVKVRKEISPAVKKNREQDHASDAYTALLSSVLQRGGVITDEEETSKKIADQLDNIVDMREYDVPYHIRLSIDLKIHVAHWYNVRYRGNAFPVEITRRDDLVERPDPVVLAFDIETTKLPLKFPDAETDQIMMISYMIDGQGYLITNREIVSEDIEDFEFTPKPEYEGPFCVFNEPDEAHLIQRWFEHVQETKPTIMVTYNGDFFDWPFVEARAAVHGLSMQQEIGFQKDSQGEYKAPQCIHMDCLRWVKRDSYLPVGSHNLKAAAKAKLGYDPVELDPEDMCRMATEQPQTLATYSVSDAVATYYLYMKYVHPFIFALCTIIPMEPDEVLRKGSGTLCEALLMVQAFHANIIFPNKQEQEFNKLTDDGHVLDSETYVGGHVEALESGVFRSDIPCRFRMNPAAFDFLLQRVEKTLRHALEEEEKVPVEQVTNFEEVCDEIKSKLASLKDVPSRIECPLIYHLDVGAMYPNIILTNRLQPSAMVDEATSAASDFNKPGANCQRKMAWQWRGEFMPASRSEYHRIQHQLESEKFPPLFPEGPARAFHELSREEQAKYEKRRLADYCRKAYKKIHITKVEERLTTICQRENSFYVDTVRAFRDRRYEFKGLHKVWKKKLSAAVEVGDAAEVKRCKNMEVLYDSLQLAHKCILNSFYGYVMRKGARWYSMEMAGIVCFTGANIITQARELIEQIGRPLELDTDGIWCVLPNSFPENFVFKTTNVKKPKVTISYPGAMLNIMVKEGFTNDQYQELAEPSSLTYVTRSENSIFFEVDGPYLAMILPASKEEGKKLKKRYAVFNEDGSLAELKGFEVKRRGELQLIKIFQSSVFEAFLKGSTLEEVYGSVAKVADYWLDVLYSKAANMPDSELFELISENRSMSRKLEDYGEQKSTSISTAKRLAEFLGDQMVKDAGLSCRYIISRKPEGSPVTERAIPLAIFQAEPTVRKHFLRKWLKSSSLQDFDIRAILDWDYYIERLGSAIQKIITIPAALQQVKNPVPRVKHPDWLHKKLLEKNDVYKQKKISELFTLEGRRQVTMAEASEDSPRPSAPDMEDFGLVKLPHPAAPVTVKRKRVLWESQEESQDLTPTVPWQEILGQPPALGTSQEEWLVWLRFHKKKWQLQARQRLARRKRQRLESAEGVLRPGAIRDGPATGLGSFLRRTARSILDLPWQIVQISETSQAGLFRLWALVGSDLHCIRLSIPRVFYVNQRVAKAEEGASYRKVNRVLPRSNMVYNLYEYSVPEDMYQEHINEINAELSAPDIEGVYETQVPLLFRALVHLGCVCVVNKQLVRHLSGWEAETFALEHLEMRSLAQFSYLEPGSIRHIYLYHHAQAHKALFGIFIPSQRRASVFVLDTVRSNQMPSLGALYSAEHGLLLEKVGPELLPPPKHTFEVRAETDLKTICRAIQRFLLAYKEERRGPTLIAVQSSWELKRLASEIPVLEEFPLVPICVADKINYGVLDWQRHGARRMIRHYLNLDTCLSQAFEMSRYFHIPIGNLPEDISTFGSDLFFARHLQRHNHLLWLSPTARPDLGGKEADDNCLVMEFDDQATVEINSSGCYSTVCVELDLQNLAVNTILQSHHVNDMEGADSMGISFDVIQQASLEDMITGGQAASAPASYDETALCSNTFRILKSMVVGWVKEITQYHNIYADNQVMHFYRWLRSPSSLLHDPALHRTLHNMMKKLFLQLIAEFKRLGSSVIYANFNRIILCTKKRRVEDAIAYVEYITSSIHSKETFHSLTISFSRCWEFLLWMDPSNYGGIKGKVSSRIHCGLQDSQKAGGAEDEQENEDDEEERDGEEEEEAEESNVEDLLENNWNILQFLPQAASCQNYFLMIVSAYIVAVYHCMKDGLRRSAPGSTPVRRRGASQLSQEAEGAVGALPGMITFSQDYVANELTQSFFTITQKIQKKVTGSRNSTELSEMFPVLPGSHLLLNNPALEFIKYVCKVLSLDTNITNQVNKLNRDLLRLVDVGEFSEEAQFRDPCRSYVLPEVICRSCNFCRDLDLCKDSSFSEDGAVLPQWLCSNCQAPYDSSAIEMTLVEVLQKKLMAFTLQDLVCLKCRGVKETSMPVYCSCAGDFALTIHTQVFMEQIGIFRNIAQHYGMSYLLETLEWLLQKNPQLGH
Chain of POLE1 ISC mutant;POLE2;POLE3;POLE4 (P56282 whole entry, stated change not applied, chain 2 of 4): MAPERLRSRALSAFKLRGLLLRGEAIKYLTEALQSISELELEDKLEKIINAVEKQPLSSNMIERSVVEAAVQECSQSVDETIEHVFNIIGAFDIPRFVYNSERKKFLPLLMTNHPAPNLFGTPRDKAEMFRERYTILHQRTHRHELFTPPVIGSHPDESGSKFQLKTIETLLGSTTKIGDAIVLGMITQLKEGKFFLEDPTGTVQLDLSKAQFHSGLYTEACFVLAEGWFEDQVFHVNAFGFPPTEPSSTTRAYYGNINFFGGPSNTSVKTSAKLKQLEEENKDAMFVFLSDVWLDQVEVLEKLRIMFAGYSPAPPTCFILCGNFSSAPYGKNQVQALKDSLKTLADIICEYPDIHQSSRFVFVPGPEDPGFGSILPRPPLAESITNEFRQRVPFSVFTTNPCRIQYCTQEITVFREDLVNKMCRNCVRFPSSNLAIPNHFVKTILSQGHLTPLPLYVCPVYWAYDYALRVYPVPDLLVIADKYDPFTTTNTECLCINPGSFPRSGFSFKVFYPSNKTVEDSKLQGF
Chain of POLE1 ISC mutant;POLE2;POLE3;POLE4 (Q9NRF9 whole entry, stated change not applied, chain 3 of 4): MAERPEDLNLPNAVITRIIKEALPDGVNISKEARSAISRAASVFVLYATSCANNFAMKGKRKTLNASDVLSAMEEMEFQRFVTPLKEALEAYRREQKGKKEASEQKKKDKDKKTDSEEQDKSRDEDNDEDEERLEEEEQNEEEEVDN
Chain of POLE1 ISC mutant;POLE2;POLE3;POLE4 (Q9NR33 whole entry, stated change not applied, chain 4 of 4): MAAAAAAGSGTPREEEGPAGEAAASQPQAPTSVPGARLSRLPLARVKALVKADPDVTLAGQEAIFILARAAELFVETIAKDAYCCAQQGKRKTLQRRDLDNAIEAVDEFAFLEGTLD
T1 sequence (Q07864 whole entry, stated change not applied, chain 1 of 4): as the sequence (Q07864 whole entry C651S/C654S, chain 1 of 4) above, with S651C, S654C counted along it
T1 sequence (P56282 whole entry, stated change not applied, chain 2 of 4): as the sequence (P56282 whole entry, stated change not applied, chain 2 of 4) above
T1 sequence (Q9NRF9 whole entry, stated change not applied, chain 3 of 4): as the sequence (Q9NRF9 whole entry, stated change not applied, chain 3 of 4) above
T1 sequence (Q9NR33 whole entry A44L/R45D/K47E/K51E, chain 4 of 4): as the sequence (Q9NR33 whole entry, stated change not applied, chain 4 of 4) above, with A44L, R45D, K47E, K51E counted along it
Chain of POLE1 (Pol epsilon catalytic subunit);POLE2 (Q07864 whole entry, chain 1 of 2): as the sequence (Q07864 whole entry C651S/C654S, chain 1 of 4) above, with S651C, S654C counted along it
Chain of POLE1 (Pol epsilon catalytic subunit);POLE2 (P56282 whole entry, chain 2 of 2): as the sequence (P56282 whole entry, stated change not applied, chain 2 of 4) above

B1: EMSA dsDNA 49 bp (dsDNA)
DNA 1: AGCTACCATGCCTGCACGAATTAAGCAATTCGTAATCATGGTCATAGCT
DNA 2: AGCTATGACCATGATTACGAATTGCTTAATTCGTGCAGGCATGGTAGCT
binding result [1]: no binding | binding result ([2]; label: 5' 6FAM on strand 1, blunt): binds

B2: EMSA leading strand fork (dsDNA)
DNA 1: AGCTACCATGCCTGCACGAATTAAGCAATTCGTAATCATGGTCATAGCT
DNA 2: CTACAGTTCGTCAGGATTCC
DNA 3: AGCTATGACCATGATTACGAATTGCTTGGAATCCTGACGAACTGTAG
binding result ([2]; label: 5' 6FAM on strand 1, fork 1:3 (27 bp) 2:3 (20 bp), 22 nt 5' flap on strand 1): binds

B3: EMSA ssDNA 49-mer (ssDNA)
DNA: AGCTACCATGCCTGCACGAATTAAGCAATTCGTAATCATGGTCATAGCT
binding result [3]: binds | binding result [4]: binds | binding result ([2]; label: 5' 6FAM): binds
